In patent US20080299072A1 (LABORATOIRES SERONO, published 2008):

Columns and labels:
[1] = molecular target: T1, CCR1 (UniProt P32246 1-355, limits assumed); experiment: competition SPA, displacement of 125I-MIP-1α from CCR1 CHO membranes
T1 construct: whole, on cells; Membrane preparation of CHO transfectants; also called CCR1-expressing CHO membranes
T1 sequence (looked up): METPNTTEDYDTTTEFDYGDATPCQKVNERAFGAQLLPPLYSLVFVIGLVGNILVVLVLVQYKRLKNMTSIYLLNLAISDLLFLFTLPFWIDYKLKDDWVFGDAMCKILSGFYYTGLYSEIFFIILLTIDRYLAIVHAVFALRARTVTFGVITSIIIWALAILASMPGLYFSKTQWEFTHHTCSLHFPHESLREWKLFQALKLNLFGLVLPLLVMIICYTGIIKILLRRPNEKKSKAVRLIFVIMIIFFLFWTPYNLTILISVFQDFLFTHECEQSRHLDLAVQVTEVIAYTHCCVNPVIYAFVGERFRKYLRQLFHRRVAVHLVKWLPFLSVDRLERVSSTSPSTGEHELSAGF
Method: (§1) The assay was carried out on membranes isolated from CHO transfectants expressing CCR1 and CCR5 from Invitrogen® using a scintillation proximity assay (Alouani, 2000). The unlabelled chemokines were prepared in triplicate by serial dilution in the range of 10⁻⁶ to 10⁻¹² M in 50 mM HEPES pH 7.5, containing 1 mM CaCl₂, 5 mM MgCl₂ and 0.5% bovine serum albumin (binding buffer). Wheatgerm scintillation proximity assay beads (Amersham®) were solubilized at 50 mg/ml in PBS, diluted to 10 mg/ml in binding buffer and put at 250 μg/well. Membranes were diluted to 80 μg/ml in binding buffer and put at 2 μg/well in the assay plates. ¹²⁵I-MIP-1α (Amersham®) was put at 0.1 nM/well and finally unlabelled chemokine was added into the plate. The plates were incubated for 3 h at room temperature with agitation and radioactivity was read with a Wallac counter.

[2] = molecular target: T1, CCR1; experiment: competition SPA, displacement of 125I-MIP-1α from CCR1 CHO membranes (FIG. 1)
Method: FIG. 1: Equilibrium competition binding to CCR1. The binding assay was performed by monitoring the displacement of [¹²⁵I]-MIP-1α from CCR1-expressing CHO membranes. A) PEGylated Ser/Cys variants (S1C, S4C). Added as competitors were: RANTES (□), Met-RANTES (X), S1C-5 kDaPEG-RANTES (▪), S4C-5 kDaPEG-RANTES. B) N-terminal PEGylated wt RANTES variants. Added as competitors were: RANTES (□), Met-RANTES (X), PEG-2 kDa-RANTES (▴), PEG-5 kDa-RANTES (▾).
as §1

[3] = molecular target: T2, CCR5 (UniProt P51681 1-352, limits assumed); experiment: competition SPA, displacement of 125I-MIP-1α from CCR5 CHO membranes
T2 construct: whole, on cells; L1.2/CCR5 cells for chemotaxis; also called CCR5-expressing CHO membranes; L1.2/CCR5 transfectants
T2 sequence (P51681 whole entry): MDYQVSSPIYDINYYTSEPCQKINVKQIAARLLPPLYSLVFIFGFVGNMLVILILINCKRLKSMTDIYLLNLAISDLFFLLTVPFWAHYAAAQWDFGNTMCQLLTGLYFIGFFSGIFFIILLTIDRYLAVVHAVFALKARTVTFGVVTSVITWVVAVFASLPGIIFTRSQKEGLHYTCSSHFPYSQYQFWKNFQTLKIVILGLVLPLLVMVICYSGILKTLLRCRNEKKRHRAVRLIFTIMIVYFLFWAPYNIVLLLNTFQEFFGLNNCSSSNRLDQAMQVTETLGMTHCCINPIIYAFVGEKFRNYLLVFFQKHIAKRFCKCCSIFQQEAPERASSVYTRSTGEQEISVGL
Method: as §1

[4] = molecular target: T2, CCR5; experiment: competition SPA, displacement of 125I-MIP-1α from CCR5 CHO membranes (FIG. 2)
Method: FIG. 2: Equilibrium competition binding to CCR5. The binding assay was performed by monitoring the displacement of [¹²⁵I]-MIP-1α from CCR5-expressing CHO membranes. A) PEGylated Ser/Cys variants. Added as competitors were: RANTES (□), Met-RANTES (x), S1C-5 kDaPEG-RANTES (▪), S4C-5 kDaPEG-RANTES, S5C-5 kDaPEG-RANTES (□). B) N-terminal PEGylated wt RANTES variants. Added as competitors were RANTES (□), Met-RANTES (x), PEG-2 kDa-RANTES (▴), PEG-5 kDa-RANTES (▾).
as §1

| Binder | IC50 [1] [nM] | IC50 [2] [nM] | IC50 [3] [nM] | IC50 [4] [nM] |
| --- | --- | --- | --- | --- |
| Mature wildtype (wt) human RANTES (ligand, The mature form was used; also called WT RANTES; CCL5) SPYSSDTTPCCFAYIARPLPRAHIKEYFYTSGKCSNPAVVFVTRKNRQVCANPEKKWVREYINSLEMS | 23.3 | 69 |  |  |
| S5C-5 kDaPEG-RANTES (ligand, also called S5C-5 kDa-RANTES) SPYSC(mPEG‑MAL 5 kDa)DTTPCCFAYIARPLPRAHIKEYFYTSGKCSNPAVVFVTRKNRQVCANPEKKWVREYINSLEMS |  |  | 902 |  |
| S4C-5 kDaPEG-RANTES (ligand, This is probably a printing error; also called S4C-5 kDa-RANTES) SPYC(mPEG‑MAL 5 kDa)SDTTPCCFAYIARPLPRAHIKEYFYTSGKCSNPAVVFVTRKNRQVCANPEKKWVREYINSLEMS | 84 | 83 | 40 | 45.4 |
| S1C-5 kDaPEG-RANTES (ligand, Expressed without a leader; also called S1C-5 kDa-RANTES) C(mPEG‑MAL 5 kDa)PYSSDTTPCCFAYIARPLPRAHIKEYFYTSGKCSNPAVVFVTRKNRQVCANPEKKWVREYINSLEMS | 167 | 272 | 41 | 82.5 |
| PEG-2 kDa-RANTES (ligand, also called N-terminal PEGylated wt RANTES (2 kDa)) {mPEG‑ButyrALD 2 kDa}-SPYSSDTTPCCFAYIARPLPRAHIKEYFYTSGKCSNPAVVFVTRKNRQVCANPEKKWVREYINSLEMS | 43 | 41 |  |  |
| Met-RANTES (ligand, The build (Met + mature RANTES) comes from the background description and the name) MSPYSSDTTPCCFAYIARPLPRAHIKEYFYTSGKCSNPAVVFVTRKNRQVCANPEKKWVREYINSLEMS | 73 | 72 | 15.2 | 15.5 |
| PEG-5 kDa-RANTES (ligand, also called N-terminal PEGylated wt RANTES (5 kDa)) {mPEG‑ButyrALD 5 kDa}-SPYSSDTTPCCFAYIARPLPRAHIKEYFYTSGKCSNPAVVFVTRKNRQVCANPEKKWVREYINSLEMS | 50 | 47 |  |  |
